Inhibition and IC50 data for one molecule are collected here from US20160376555A1, “NOVEL METHODS TO REGENERATE HUMAN LIMBAL STEM CELLS” (The Regents of the University of California, priority 2012, published 2016).

Assay [1] has as its system Wnt3a activities. As to the kind of experiment: Wnt reporter gene assay. Format: cell-based. To be noted: Dkk2 at 125 nM. From the text:
As discussed above, Wnt/β-catenin and Notch pathways play pivotal roles in the fate determination decision between epidermal and corneal epithelial lineage in mice. In particular, Dkk2 is necessary for corneal development and activation of Notch1 is required to maintain the corneal lineage. Dkk2 alone or in combination with Notch1 activation may facilitate and increase the efficiency of the reprogramming process in humans. Functional recombinant Dkk2 protein can be provided by Dr. Jie Zheng (St. Jude Children's Research Hospital) (see, e.g. Lin et al., Proc Natl Acad Sci USA 2010; 107:4194-4199). It inhibits Wnt3a activities with an IC50 value around 8 nM in the Wnt reporter gene assay(see, e.g. Lujan et al., Proc Natl Acad Sci USA 2012; 109:2527-2532). Therefore, we can use the 3-step coculture protocol as described above and add Dkk2 to the culture medium at various concentrations starting at 8 nM to the Step 1 co-culture, which is the reprogramming step. Phenotypic analysis can be performed in each of the 3 steps to determine the outcome of transdifferentiation by the expression of K12 and K10 in the cultured epithelial cells. The optimal concentration of Dkk2 that achieves the highest portion of K12+ cells in Step 3 can be determined. This concentration of Dkk2 can be used. […]

The test system of assay [2] is Wnt3a activities. To be noted: functional recombinant Dkk2 protein; Wnt reporter gene assay; read-out: IC50, inhibition of Wnt3a activities; cited from earlier work. (Reporter assays use an easily measured gene product as a stand-in for the process of interest.)

B1: Dkk2: Functional recombinant Dkk2 protein, a Wnt inhibitor (protein, UniProt Q9UBU2 34-259, looked up)
Dickkopf-related protein 2: KLNSIKSSLGGETPGQAANRSAGMYQGLAFGGSKKGKNLGQAYPCSSDKECEVGRYCHSPHQGSSACMVCRRKKKRCHRDGMCCPSTRCNNGICIPVTESILTPHIPALDGTRHRDRNHGHYSNHDLGWQNLGRPHTKMSHIKGHEGDPCLRSSDCIEGFCCARHFWTKICKPVLHQGEVCTKQRKKGSHGLEIFQRCDCAKGLSCKVWKDATYSSKARLHVCQKI
As usually defined, the inhibition is the change of the read-out against control, counted positive when it falls. The IC50 is the concentration at which inhibition is half-maximal. In the case of B1, in the assay on Wnt3a activities [1], the inhibition is reported as 90%. In addition, the IC50 in the assay on Wnt3a activities [2] is around 8 nM.
